# Measured values: patent US20220040304A1, “A COMPOSITION FOR CANCER CELL DEATH AND ITS USE” (Industry-University Cooperation Foundation Hanyang …, priority 2018, published 2022)
# Changes are numbered by the printed parent chain.
# B1: RLuc8.6: third protein, mutant Renilla luciferase 8.6 providing light, 38 kDa (protein)
# chain: MASKVYDPEQRKRMITGPQWWARCKQMNVLDSFINYYDSEKHAENAVIFLHGNATSSYLWRHVVPHIEPVARCIIPDLIGMGKSGKSGNGSYRLLDHYKYLTAWFELLNLPKKIIFVGHDWGSALAFHYAYEHQDRIKAIVHMESVVDVIESWMGWPDIEEELALIKSEEGEKMVLENNFFVETLLPSKIMRKLEPEEFAAYLEPFKEKGEVRRPTLSWPREIPLVKGGKPDVVQIVRNYNAYLRASDDLPKLFIESDPGFFYNAIVEGAKKFPNTEFVKVKGLHFLQEDAPDEMGKYIKSFVERVLKNEQ
# modifications: RLuc8.6
# notes: third protein, mutant Renilla luciferase 8.6 providing light, 38 kDa
# B2: RLuc8: third protein, mutant Renilla luciferase 8 providing light, 38 kDa (protein)
# chain: B1 chain with S123A, M154D, G155E, E162D, L163I, L185V, Y263S
# modifications: RLuc8
# Legend:
# [1] = Stability of bioluminescence intensity in PBS or normal mouse serum; conditions: buffer (1×PBS) or normal mouse serum, 37° C., protein 10 μM, Co-h 150 μM
# Experimental: Bioluminescence assay was performed by reaction of 30 μL of buffer (1×PBS) containing the purified protein RLuc8.6 or RLuc8.6-KR-LP protein, or RLuc8 or RLuc8-MS-LP protein (final concentration: 10 μM) and 0.8 μL of a Co-h substrate solution (final concentration: 150 μM) in an incubator (37° C.). 30 μL of normal mouse serum (Jackson ImmunoResearch, USA) containing the purified protein (final concentration: 10 μM) and 0.8 μL of a Co-h substrate solution (final concentration: 150 μM) were reacted in an incubator (37° C.). Bioluminescence intensity was immediately measured using GLOMAX.
# [2] = Bioluminescence assay of purified proteins with Co-h substrate (BRET); format: physicochemical; conditions: protein 1 μM, Co-h 50 μM, 1×PBS
# Experimental: In addition, 100 μL of buffer (1×PBS) containing the protein purified in Example 1 (final concentration: 1 μM) was dispensed into a 96-well plate (SPL Cell Culture Plate, 96 well (SPL, Cat #30196)), and bioluminescence assay was then performed using 50 μL of buffer (1×PBS) containing a Co-h substrate solution (final concentration: 50 μM), which is a wild-type 2-deoxy derivative. Bioluminescence intensity was immediately measured at a wavelength of 300 to 800 nm using a Thermo Scientific™ Varioskan™ Flash Multimode Reader.
Molecule,luminescence intensity with increasing reaction time (stability) [1],emission in bioluminescence assay (BRET) [2]
B1,constant,535 nm
B2,–,480 nm
